{
  "source": "paper PMC7105138",
  "about": "“Modeling cancer genomic data in yeast reveals selection against ATM function during tumorigenesis” (PLoS Genetics, 2020)",
  "assay_in_all_cases": "EMSA",
  "conditions_in_all_cases": "ATP, 5 mM Mg2+, 150 mM NaCl; 25 mM Tris-Cl pH 7.6, 150 mM NaCl (also 50, 250, 300 mM), 7.5% glycerol, 1 mM beta-mercaptoethanol, 0.125% Igepal, 5 mM MgCl2, with or without 5 mM ATP; 5 nM …",
  "key": {"[1]": {"tested_on": "Rad50-D67Y (Saccharomyces cerevisiae)"}, "[2]": {"tested_on": "Rad50-L1240F-I23V (Saccharomyces cerevisiae)"}, "[3]": {"tested_on": "Rad50-L1240F (Saccharomyces cerevisiae)"}, "[4]": {"tested_on": "Rad50-D67N (Saccharomyces cerevisiae)"}},
  "note": "pKd: −log10 of the molar value.",
  "data": [
    {"substance": "83-mer dsDNA oligonucleotide", "values": [
      {"measurement": "pKd", "setting": "[1]", "result": 6.49},
      {"measurement": "pKd", "setting": "[2]", "result": "< 6.10"},
      {"measurement": "pKd", "setting": "[3]", "result": "< 6.10"},
      {"measurement": "pKd", "setting": "[4]", "result": 6.70}
    ]}
  ]
}
